From paper PMC4359074

Biological target: mono-nucleosome di-methylated at H3K4 (Xenopus)
Assay: native gel or EMSA

- Kd: 10 µM
Binder: TLYCFCQRVSFGEMVACDGPNCKYEWFHYDCVNLKEPPKGTWYCPECKIE (domain or fragment, modifications not checked) [GST-PHD_(Yng2)]
